Test results published in paper PMC11660155.

Legend:
[1] = target: scCSGal-1–6H M120L Q142AzK-ss-bio (human); experiment: BLI; Octet RED96e; streptavidin tips loaded with 60 ug/mL biotinylated scCSGal-1 protein; vWF at 25 ug/mL as analyte; association 600 s, dissociation 150 s; PBS with 0.05% Tween 20 and 0.1% BSA, pH 7.4; 25 °C, 1000 rpm; read-out Rt = response at 600 s
[2] = target: scCSGal-1–6H M120L R141AzK-ss-bio (human); experiment: as above

- Rt (specific BLI response at 600 s) [1]: 0.14 nm
- Rt (specific BLI response at 600 s) [2]: 0.32 nm
Substance: von Willebrand factor (from UniProt P04275 764-2813) (natural protein)
